According to article PMC6491619, “Development and application of a high-content virion display human GPCR array” (Nature Communications, 2019):
No end group written: not given here.

Key:
Assay in all cases: virion-oscillator (plasmonic imaging, SPR read-out); VirD-GPCR virions tethered to a gold chip by a PEG linker and driven by a sinusoidal potential (5 Hz); label-free SRIF-14 perfused at several doses; first-order kinetics model
Settings in all cases: one partner purified
VirD-KISS1R = biological target: T1, VirD-KISS1R (human, UniProt Q969F8 1-398)
T1 construct: source: recombinant HSV-1 (UL27 locus); virions from infected cells (in most cases Vero), purified by sucrose cushion; also on infected Vero cells; not shown: V5, C-terminal, kept

VirD-GABBR2 = biological target: T2, VirD-GABBR2 (human, UniProt O75899 42-941)
T2 construct: source: recombinant HSV-1 (UL27 locus); virions from infected cells (in most cases Vero), purified by sucrose cushion; also on infected Vero cells; not shown: V5, C-terminal, kept
T2 sequence: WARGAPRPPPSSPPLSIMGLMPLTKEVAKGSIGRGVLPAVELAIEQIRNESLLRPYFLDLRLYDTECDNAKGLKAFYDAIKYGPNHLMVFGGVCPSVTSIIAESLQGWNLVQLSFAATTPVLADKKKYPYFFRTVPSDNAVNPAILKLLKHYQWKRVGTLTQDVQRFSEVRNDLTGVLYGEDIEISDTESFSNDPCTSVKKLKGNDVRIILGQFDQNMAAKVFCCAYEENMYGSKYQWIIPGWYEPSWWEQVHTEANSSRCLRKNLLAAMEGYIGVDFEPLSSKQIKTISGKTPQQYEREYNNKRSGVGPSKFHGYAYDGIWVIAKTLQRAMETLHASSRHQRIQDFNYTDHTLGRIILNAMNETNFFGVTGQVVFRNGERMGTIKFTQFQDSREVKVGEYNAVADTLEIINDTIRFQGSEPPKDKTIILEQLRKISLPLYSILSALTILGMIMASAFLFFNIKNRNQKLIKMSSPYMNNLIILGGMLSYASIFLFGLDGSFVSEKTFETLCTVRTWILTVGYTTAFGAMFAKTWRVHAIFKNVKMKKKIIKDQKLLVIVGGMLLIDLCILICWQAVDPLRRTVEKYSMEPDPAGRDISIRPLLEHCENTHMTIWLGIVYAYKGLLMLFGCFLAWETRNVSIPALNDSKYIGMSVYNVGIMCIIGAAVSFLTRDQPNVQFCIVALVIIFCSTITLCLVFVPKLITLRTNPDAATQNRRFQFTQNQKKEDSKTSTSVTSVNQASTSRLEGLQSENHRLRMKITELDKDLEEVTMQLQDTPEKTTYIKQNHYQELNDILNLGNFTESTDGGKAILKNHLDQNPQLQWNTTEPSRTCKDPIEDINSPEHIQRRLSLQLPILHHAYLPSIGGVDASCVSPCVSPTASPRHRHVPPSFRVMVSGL

VirD-NTSR1 = biological target: T3, VirD-NTSR1 (human, UniProt P30989 1-418)
T3 construct: source: recombinant HSV-1 (UL27 locus); virions from infected cells (in most cases Vero), purified by sucrose cushion; also on infected Vero cells; not shown: V5, C-terminal, kept
T3 sequence (P30989 whole entry): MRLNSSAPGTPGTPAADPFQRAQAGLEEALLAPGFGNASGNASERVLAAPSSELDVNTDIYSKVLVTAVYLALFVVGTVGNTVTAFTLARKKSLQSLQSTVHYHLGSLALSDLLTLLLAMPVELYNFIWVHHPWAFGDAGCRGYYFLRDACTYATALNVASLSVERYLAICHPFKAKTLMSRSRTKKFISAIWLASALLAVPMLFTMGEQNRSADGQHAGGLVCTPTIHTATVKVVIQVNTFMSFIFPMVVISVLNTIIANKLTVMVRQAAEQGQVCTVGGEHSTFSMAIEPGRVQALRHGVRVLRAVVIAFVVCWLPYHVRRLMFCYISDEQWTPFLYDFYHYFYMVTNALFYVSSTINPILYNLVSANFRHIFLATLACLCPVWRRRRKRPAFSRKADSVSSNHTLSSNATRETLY

T1 sequence (Q969F8 whole entry): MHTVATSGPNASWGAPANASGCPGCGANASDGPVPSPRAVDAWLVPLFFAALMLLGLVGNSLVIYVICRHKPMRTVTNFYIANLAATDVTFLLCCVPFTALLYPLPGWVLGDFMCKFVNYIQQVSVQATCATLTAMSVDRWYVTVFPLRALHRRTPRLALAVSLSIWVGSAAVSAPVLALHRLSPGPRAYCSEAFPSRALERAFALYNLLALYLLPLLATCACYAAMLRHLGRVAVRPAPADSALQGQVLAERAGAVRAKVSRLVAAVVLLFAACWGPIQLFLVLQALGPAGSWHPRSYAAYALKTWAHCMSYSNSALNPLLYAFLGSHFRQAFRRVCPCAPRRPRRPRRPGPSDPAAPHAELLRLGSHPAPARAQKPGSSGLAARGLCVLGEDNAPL

B1: somatostatin-14 (SRIF-14), unlabeled (peptide)
peptide: AGCKNFFWKTFTSC
modifications: not fully specified (bridges); ends and bridges not checked
notes: somatostatin-14 (SRIF-14), cut product of the somatostatin precursor; also called cold SRIF-14; SIRF-14; source: bought: AnaSpec (peptide)
Question: B1 was tested. Which Kd (VirD-KISS1R) did it give?
Answer: 25000 nM

Question: What about the Kd (VirD-GABBR2) of the same binder?
Answer: 400 nM

Question: What about the Kd (VirD-NTSR1) of the same binder?
Answer: 2600 nM
